Consider 2 molecules from paper PMC4365668, “The zinc finger proteins ZNF644 and WIZ regulate the G9a/GLP complex for gene repression”.

What all share (assay): EMSA; 20 mM HEPES-KOH pH 7.9, 20% glycerol, 0.2 mM EDTA, 0.1 M KCl, 0.5 mM PMSF, 1 mM DTT, 5 mM MgCl2, 1.25 ug/ul BSA, 0.2 nM DNA, 2 h at 4 C; 7.5% PAGE in TBE
Common to all, as to details: protein: recombinant; tags: GST; label: 5'-32P; blunt

One data set has as its target T1, GST-ZNF644N300 (human, UniProt Q9H582 1-300).
T1 sequence: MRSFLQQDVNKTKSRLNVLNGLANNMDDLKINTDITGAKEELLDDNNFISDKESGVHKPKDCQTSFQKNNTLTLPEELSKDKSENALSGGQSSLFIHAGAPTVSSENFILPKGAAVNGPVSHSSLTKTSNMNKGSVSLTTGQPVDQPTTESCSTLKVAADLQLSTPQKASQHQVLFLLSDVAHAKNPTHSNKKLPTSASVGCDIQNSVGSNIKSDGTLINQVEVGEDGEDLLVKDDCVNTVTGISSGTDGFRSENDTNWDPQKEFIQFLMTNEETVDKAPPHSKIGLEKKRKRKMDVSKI

The next data set concerns the target T2, GST-ZNF644 (human, UniProt Q9H582 1-1327).
T2 sequence: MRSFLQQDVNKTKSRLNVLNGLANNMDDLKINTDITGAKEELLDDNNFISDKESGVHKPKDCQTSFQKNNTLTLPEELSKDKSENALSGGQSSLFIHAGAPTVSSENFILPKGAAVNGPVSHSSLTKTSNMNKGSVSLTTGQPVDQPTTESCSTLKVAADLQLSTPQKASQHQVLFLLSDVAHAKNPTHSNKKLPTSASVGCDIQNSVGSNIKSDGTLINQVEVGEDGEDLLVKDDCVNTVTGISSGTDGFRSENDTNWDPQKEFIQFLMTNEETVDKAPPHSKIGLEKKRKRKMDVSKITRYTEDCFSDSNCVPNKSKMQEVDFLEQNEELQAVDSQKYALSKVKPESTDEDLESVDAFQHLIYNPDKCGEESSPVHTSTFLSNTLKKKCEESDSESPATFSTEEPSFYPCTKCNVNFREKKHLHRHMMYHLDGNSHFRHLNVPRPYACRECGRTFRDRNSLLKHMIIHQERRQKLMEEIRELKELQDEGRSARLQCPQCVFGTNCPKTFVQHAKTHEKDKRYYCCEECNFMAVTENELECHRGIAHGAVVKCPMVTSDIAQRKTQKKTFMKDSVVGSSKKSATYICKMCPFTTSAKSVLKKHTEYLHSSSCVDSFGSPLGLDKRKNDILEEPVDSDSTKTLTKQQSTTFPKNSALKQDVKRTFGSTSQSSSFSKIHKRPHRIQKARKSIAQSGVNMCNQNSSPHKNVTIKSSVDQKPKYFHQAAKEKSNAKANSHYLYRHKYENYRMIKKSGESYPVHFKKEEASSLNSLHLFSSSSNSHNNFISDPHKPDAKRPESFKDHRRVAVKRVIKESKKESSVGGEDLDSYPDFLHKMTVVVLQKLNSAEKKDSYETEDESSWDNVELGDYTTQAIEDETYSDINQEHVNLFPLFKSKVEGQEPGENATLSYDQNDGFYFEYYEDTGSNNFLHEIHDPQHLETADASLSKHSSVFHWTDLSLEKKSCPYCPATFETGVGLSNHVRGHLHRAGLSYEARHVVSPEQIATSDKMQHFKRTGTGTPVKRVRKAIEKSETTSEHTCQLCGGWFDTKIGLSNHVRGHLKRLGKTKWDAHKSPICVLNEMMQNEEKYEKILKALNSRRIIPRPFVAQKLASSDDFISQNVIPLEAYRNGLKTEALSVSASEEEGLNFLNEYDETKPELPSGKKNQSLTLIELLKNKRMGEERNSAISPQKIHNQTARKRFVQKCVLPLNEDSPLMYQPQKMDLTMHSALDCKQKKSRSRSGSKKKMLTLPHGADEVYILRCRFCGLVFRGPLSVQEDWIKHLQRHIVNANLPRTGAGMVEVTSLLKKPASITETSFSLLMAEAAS

The target in the next data set is T3, GST-WIZN200 (human, UniProt O95785 1-200).
T3 sequence: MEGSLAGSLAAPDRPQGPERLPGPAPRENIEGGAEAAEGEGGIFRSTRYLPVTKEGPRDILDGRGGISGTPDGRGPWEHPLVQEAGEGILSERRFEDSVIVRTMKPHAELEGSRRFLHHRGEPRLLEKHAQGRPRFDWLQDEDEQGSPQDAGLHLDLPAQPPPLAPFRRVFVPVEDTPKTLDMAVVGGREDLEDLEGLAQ

The target in a further data set is GST-WIZ (human, UniProt O95785 1-1651).

B1: ZNF644 WT DNA target (dsDNA)
DNA 1: GAGTAAGATCATGCCACTGGGAATCATCGAACACAGAGTGAGGCTGGG
DNA 2: CCCAGCCTCACTCTGTGTTCGATGATTCCCAGTGGCATGATCTTACTC
Take B1: the figures for the binding result with GST-ZNF644N300 and with GST-ZNF644 were “no binding” and “binds”, respectively.

B2: WIZ WT DNA target (dsDNA)
DNA 1: GAGTCTCACTCACGCGCCATTCCATTCCATTCAGATACTAGTACGGTCAG
DNA 2: CTGACCGTACTAGTATCTGAATGGAATGGAATGGCGCGTGAGTGAGACTC
As to B2, the binding result with GST-WIZN200 was “no binding”; in the data set with GST-WIZ, “binds”.
